Key:
[1] = target: T1, recombinant His-tagged human IL-2Rβ (human, UniProt P14784 27-240, limits assumed); test: ELISA, coated His-tagged IL-2Rβ
T1 construct: also called IL-2Rβ-HIS; IL-15Rβ-HIS
T1 sequence (looked up): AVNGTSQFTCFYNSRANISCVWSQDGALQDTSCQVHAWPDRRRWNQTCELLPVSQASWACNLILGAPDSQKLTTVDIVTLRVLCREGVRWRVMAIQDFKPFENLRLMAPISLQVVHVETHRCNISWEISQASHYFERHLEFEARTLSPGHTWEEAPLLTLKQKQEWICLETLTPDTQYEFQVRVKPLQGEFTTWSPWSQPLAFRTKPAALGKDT
Procedure: For monovalent IL-2 Fc-fusion proteins, recombinant His-tagged human IL-2Rα and IL-2Rβ were added in 25 μL of 1×PBS to wells of 384-well plate and incubated overnight at 4° C. to coat the plates. Plates were washed three times with 0.05% Tween20/1×PBS. Plates were blocked with 100 μL of SuperBlock for 1 hr at RT and then washed 3 times with 0.05% Tween20/1×PBS. IL-2 mutants were diluted in 0.05% Tween 20/1×PBS from 1000 nM to 0 nM and added to plates for 2 hrs at room temperature. Plates were then washed 6 times with 0.05% Tween20/1×PBS. Anti-HisTag-HRP was diluted 1:5000 in 0.05% Tween20/1×PBS and added to plates for 1 hr at RT. Plates were then washed 6 times with 0.05% Tween 20/1×PBS, and TMB was added to develop blue color. Reactions were stopped with 2N […] and light absorbance at 450 nm was read on a BioTek plate reader. Absorbance versus IL-2 concentration is graphed for human IL-2Rα and IL-2Rβ. […]

[2] = target: T2, human PD-L1-HIS tagged recombinant protein (human, UniProt Q9NZQ7 19-238); test: SPR, Protein A capture, PD-L1-HIS analyte
T2 construct: also called hPD-L1-HIS; PD-L1 HIS tagged protein
Procedure: (§1) The assay was run with Biacore T200 control software version 2.0. For each cycle, 1 μg/mL of anti-hPD-L1/IL-2 was captured for 60 seconds at flow rate of 10 μL/min on flow cell 2 in 1×HBSP buffer on Protein A sensor chip. […] The flow cells were then regenerated with Glycine pH2 for 60 seconds at flow rate of 30 μL/min. […] The specific binding response unit was derived from subtraction of binding to reference flow cell 1 from antibody captured flow cell 2.

[3] = target: T1, recombinant His-tagged human IL-2Rβ; test: SPR, Protein A capture, IL-2Rβ-HIS analyte
Procedure: as §1

biotinylated PD-L1 = biotinylated PD-L1 (Homo sapiens (Human), UniProt Q9NZQ7 19-238, biotinylated; site not stated); test: ELISA, anti-human Fc capture, biotinylated PD-L1
Procedure: A 384 well plate was immobilized with anti-human Fc at final concentration of 2 μg/mL in 1×PBS in total volume of 25 μL per well. The plate was incubated overnight at 4C followed by blocking with 80 μL of superblock per well for 1 hour. […] In between each step, the plate was washed 3 times with 1×PBST in a plate washer. The plate was then developed with 25 μL of TMB substrate for 5 min and stopped by adding 25 μL of 2N sulfuric acid. The plate was read at OD450 nm Biotek plate reader and the binding correlation was plotted with Prism 8.1 software. The ELISA binding assays of the antibodies to IL-2Rα and IL-2Rβ receptors were performed as described in Example 6.

[4] = target: T3, recombinant His-tagged human IL-2Rα (human, UniProt P01589 22-213, limits assumed); test: ELISA, coated His-tagged human IL-2Rα, OD 450 nm
T3 construct: also called IL-2Rα-HIS; CD25
T3 sequence (looked up): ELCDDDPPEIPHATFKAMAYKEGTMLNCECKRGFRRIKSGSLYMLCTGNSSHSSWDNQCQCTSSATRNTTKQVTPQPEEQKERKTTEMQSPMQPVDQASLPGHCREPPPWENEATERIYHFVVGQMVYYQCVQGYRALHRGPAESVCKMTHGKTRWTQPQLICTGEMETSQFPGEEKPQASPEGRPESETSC
Procedure: For monovalent IL-2 Fc-fusion proteins, recombinant His-tagged human IL-2Rα and IL-2Rβ were added in 25 μL of 1×PBS to wells of 384-well plate and incubated overnight at 4° C. to coat the plates. Plates were washed three times with 0.05% Tween20/1×PBS. Plates were blocked with 100 μL of SuperBlock for 1 hr at RT and then washed 3 times with 0.05% Tween20/1×PBS. IL-2 mutants were diluted in 0.05% Tween 20/1×PBS from 1000 nM to 0 nM and added to plates for 2 hrs at room temperature. Plates were then washed 6 times with 0.05% Tween20/1×PBS. Anti-HisTag-HRP was diluted 1:5000 in 0.05% Tween20/1×PBS and added to plates for 1 hr at RT. Plates were then washed 6 times with 0.05% Tween 20/1×PBS, and TMB was added to develop blue color. Reactions were stopped with 2N […] and light absorbance at 450 nm was read on a BioTek plate reader. Absorbance versus IL-2 concentration is graphed for human IL-2Rα and IL-2Rβ.
A 384 well plate was immobilized with anti-human Fc at final concentration of 2 μg/mL in 1×PBS in total volume of 25 μL per well. The plate was incubated overnight at 4C followed by blocking with 80 μL of superblock per well for 1 hour. […] In between each step, the plate was washed 3 times with 1×PBST in a plate washer. […] The plate was read at OD450 nm Biotek plate reader and the binding correlation was plotted with Prism 8.1 software. […]

[5] = target: PD-L1 on PD-L1 aAPC/CHOK1 cells (Promega J1250); test: cell-based or functional assay
[6] = target: T4, PD-L1 biotinylated (PD-1/PD-L1 TR-FRET assay kit, BPS 72038) (Homo sapiens (Human), UniProt Q9NZQ7 19-238, biotinylated; site not stated); test: HTRF competition, competitor PD-1-Eu
T4 construct: Kit reagent
Procedure: Briefly, 1× Immuno buffer 1 was made. […] For each well in 384-well plate, serial diluted scFvs and regents were added according to manufacturer's recommended volume. Samples were incubated at room temperature for 1.5 hours then the fluorescent intensity was read with Biotek Neo2 plate reader using manufacture's instrument setting for the assay.

[7] = target: T1, recombinant His-tagged human IL-2Rβ; test: SPR, Protein A capture, IL-2Rβ-HIS analyte, steady state affinity
Procedure: as §1

[8] = target: T5, full-length human PD-L1 on K562 cells (human, UniProt Q9NZQ7 19-290); test: FACS, PD-L1/K562 cells
T5 construct: also called PD-L1/K562; cell surface human PD-L1
Procedure: Cells were spun down at 1200 rpm for 5 minutes at 4° C. to remove primary antibodies. Cells were then washed once with 200 μL of full medium per well. […] Samples were spun down at 1200 rpm for 5 minutes at 4° C. and washed twice with 200 μL of 1×PBS per well. Samples were reconstituted in 200 μL of 1×PBS and were read on Attune NxT cytometer.
(§2) The production, the binding, and all of the characterization assays for selected affinity matured scFv clones were performed as described above.

human PD-L1-Fc [9] = target: T6, human PD-L1-Fc (human, UniProt Q9NZQ7 19-238); test: SPR, PD-L1-Fc captured, scFv analyte
T6 construct: also called recombinant PD-L1-Fc fusion protein
Procedure: The assay was run with Biacore T200 control software version 2.0. Anti-human Fc antibody was immobilized on flow cell 1 and 2 of CM5 sensor chip. […] The flow cells were then regenerated with antibody regeneration buffer (GE Healthcare) for 30 seconds at flow rate of 30 μl/min.
as §2

human PD-L1-Fc [10] = target: T6, human PD-L1-Fc; test: ELISA, coated PD-L1-Fc, anti-FLAG HRP
Procedure: The plate was incubated overnight at 4° C. followed by blocking with 80 μL of superblock per well for 1 hour. […] In between each step, the plate was washed 3 times with 1×PBST in a plate washer. The plate was then developed with 20 μL of TMB substrate for 5 min and stopped by adding 20 μL of 2N sulfuric acid. The plate was read at OD450 nm Biotek plate reader and then plotted in Prism 8.1 software.
as §2

human PD-L1-Fc [11] = target: T6, human PD-L1-Fc; test: SPR, PD-L1-Fc captured, scFv analyte; exponent sign missing in print, value set to E-03 from the same row's KD x kon

B1: IL-2/anti-PD-L1 scFv Fc EP413/EP326 (bispecific antibody)
chain 1: not shown
chain 2: QVQLVQSGAEVKKPGSSVKVSCKASGGTFSSYAISWVRQAPGQGLEWMGGIIPIFGTANYAQKFQGRVTITADESTSTAYMELSSLRSEDTAVYYCARDKWYGSAWRGDYWGQGTLVTVSSGGGGSGGGGSGGGGSQSVLTQPPSASGTPGQRVTISCSGSYSNIGSNFVNWYQQLPGTAPKLLIHFNNQRPSGVPDRFSGSRSGTSASLAISGLQSEDEADYFCSTWDDSLKGPIFGGGTKLTVLDKTHTCPPCPAPEAAGGPSVFLFPPKPKDTLMISRTPEVTCVVVDVSHEDPEVKFNWYVDGVEVHNAKTKPREEQYNSTYRVVSVLTVLHQDWLNGKEYKCKVSNKALGAPIEKTISKAKGQPREPQVCTLPPSRDELTKNQVSLSCAVKGFYPSDIAVEWESNGQPENNYKTTPPVLDSDGSFKLVSKLTVDKSRWQQGNVFSCSVMHEALHNHYTQKSLSLSPGK
notes: IL2 EP001 carrying K35L/R38D/F42R
Work on B1 yielded an EC50 [1] of 0.545 nM, a Kd [2] of 0.507 nM and a koff [2] of 0.000247 s⁻¹. For the same binder, the kon [2] was 487000 M⁻¹ s⁻¹, the Kd [3] was 6.5 nM and the koff [3] was 0.0107 s⁻¹. The kon [3] was 1.65e+06 M⁻¹ s⁻¹, the EC50 (biotinylated PD-L1) was 0.345 nM and the binding result [4] was “no binding (tested: LOG(IL-2(nM)) 2 (100 nM))”.

B2: IL-2/anti-PD-L1 scFv Fc EP418/EP326 (bispecific antibody)
chain 1: not shown
chain 2: QVQLVQSGAEVKKPGSSVKVSCKASGGTFSSYAISWVRQAPGQGLEWMGGIIPIFGTANYAQKFQGRVTITADESTSTAYMELSSLRSEDTAVYYCARDKWYGSAWRGDYWGQGTLVTVSSGGGGSGGGGSGGGGSQSVLTQPPSASGTPGQRVTISCSGSYSNIGSNFVNWYQQLPGTAPKLLIHFNNQRPSGVPDRFSGSRSGTSASLAISGLQSEDEADYFCSTWDDSLKGPIFGGGTKLTVLDKTHTCPPCPAPEAAGGPSVFLFPPKPKDTLMISRTPEVTCVVVDVSHEDPEVKFNWYVDGVEVHNAKTKPREEQYNSTYRVVSVLTVLHQDWLNGKEYKCKVSNKALGAPIEKTISKAKGQPREPQVCTLPPSRDELTKNQVSLSCAVKGFYPSDIAVEWESNGQPENNYKTTPPVLDSDGSFKLVSKLTVDKSRWQQGNVFSCSVMHEALHNHYTQKSLSLSPGK
notes: IL2 EP340
With B2 the “NFAT reporter EC50” value [5] was 9.07 nM, the IC50 [6] was 346 nM and the Kd [2] was 0.547 nM. For the same binder, the EC50 (biotinylated PD-L1) was 0.287 nM and the Kd [7] was 75.8 nM.

B3: 2019EP69-C05 scFv (scFv, V domains shown)
VH: QVQLVQSGAEVKKPGSSVKVSCKASGGTFSSYAISWVRQAPGQGLEWMGGIIPIFGTANYAQKFQGRVTITADESTSTAYMELSSLRSEDTAVYYCARDKGYGSGFRGDYWGQGTLVTVSS
VL: QSVLTQPPSASGTPGQRVTISCSGSYSNIGSNFVNWYQQLPGTAPKLLIHFNNQRPSGVPDRFSGSRSGTSASLAISGLQSEDEADYFCSTWDDSLKGPIFGGGTKLTVL
B3 showed an EC50 [8] of 0.221 nM, a Kd (human PD-L1-Fc [9]) of 2.58 nM and a kon (human PD-L1-Fc [9]) of 1.76e+06 M⁻¹ s⁻¹. For the same binder, the EC50 (human PD-L1-Fc [10]) was 0.507 nM and the koff (human PD-L1-Fc [11]) was 0.00454 s⁻¹.
